Experimental data published in patent US20250034594A1, “RNA-GUIDED GENOME RECOMBINEERING AT KILOBASE SCALE” (THE BOARD OF TRUSTEES OF THE LELAND STANFORD JUNIOR …, priority 2021, published 2025).

Columns and labels:
Type in all cases: cell-based
gene editing with Cas9 = assay: Screen of 322 new SSAP proteins, gene editing activity with Cas9 (Table 5); parameters: Cas9 with SSAP activity: scale not given here
Procedure, shortened: (§1)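 First, 322 new single-strand annealing proteins are identified from sequences. Next they are synthesized. Finally each is assayed for editing in combination with Cas9 and, separately, dCas9.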

[1] = tested on: gene editing with Cas9 and dCas9; assay: Screen of 322 new SSAP proteins, activity across all experiments (Cas9 and dCas9, Table 5); parameters: scale not given here
Procedure, shortened: as §1

gene editing with dCas9 = assay: Screen of 322 new SSAP proteins, gene editing activity with dCas9 (Table 5); parameters: dCas9 with SSAP activity: scale not given here
Procedure, shortened: as §1

B1: SSAP_284: SEQ ID NO: 453; Paenibacillus sp. VMFN-D1 (protein, listed as Paenibacillus sp.)
chain: AKALLENKLQERAAGASTPSTQGTSLKALLNSPAIKKRFDELLDKRSAQYMTSIVNLYNSDAMLQKAEPMSVISSCIVAATLDLPVDKNLGYAWIVPYSGKAQFQLGYKGYIQLALRTGQYKAINVIEVYEGELVKWNPLTEALELDFEKRKSDAVIGYAGYFELINGFRKSVYWTREQIESHRKKFSKSDFGWKKDYDAMAKKTIIRNMLSKWGILSIEMQDAYSKEIEAIPPLNNENEEDPPIDLTPEDYRVGDEPQDGKEQGEMNFE
Cas9 with SSAP activity (gene editing with Cas9): −1.673 | Cas9 with SSAP activity (normalized) (gene editing with Cas9): −1.388 | Activity across all experiments [1]: −4.873 | dCas9 with SSAP activity (gene editing with dCas9): −8.073 | dCas9 with SSAP activity (normalized) (gene editing with dCas9): −1.172

B2: SSAP_33: SEQ ID NO: 202 (protein)
chain: TTNQVVTHKNFFNAPNVQKSFDDVWKGAGVQFATSILSVIQGNASLKSASNESIMTSAMKAAVLNLPIEPSLGRAYLVPYKGQVQFQLGYKGLIELAQRSGKYKSINAGPVYKSQFVSYDPLFEELTLDFTQPQDEVIGYFASFSLLNGFRKLTYWTKAEVEAHGKKFSKTFGNGPWKTDFDAMARKTVLKHILSIYGPLSVEMQTGMQNDESENDNATRDIKTAEPVNADQQLLEDLMNVDTETGEILEEVSELKDNGELDLKYEDPNAR
Cas9 with SSAP activity (gene editing with Cas9): 1.307 | Cas9 with SSAP activity (normalized) (gene editing with Cas9): 0.578 | Activity across all experiments [1]: −3.528 | dCas9 with SSAP activity (gene editing with dCas9): −8.362 | dCas9 with SSAP activity (normalized) (gene editing with dCas9): −1.043

B3: SSAP_230: SEQ ID NO: 399; Leuconostoc pseudomesenteroides (protein)
chain: ANEITLAKQLSSDKVVEQFAATAGESAKSFAKEVALTISGNPALQHAKLGTVIVEATKASALGLSLLPTVGEAYLVPYKGDAQFQLGYKGIVQLAMRSGQMKSFGAESVYEGENPKWDKYNQELVTDGEETGKIIGYYAFFTLVNGFKMAAYWPKEKVEAHRDRFSKSKKGPWSTDFDAMAKKTVLKSILQYAPKSSEMKRALAEDTQAEYVQAGIQDVTPEPANIEAPIETANAPEINAQEESLFGELSDVDKETAPNPFAQNLGGDN
modifications: Leuconostoc pseudomesenteroides
Cas9 with SSAP activity (gene editing with Cas9): 0.548 | Cas9 with SSAP activity (normalized) (gene editing with Cas9): 0.321 | Activity across all experiments [1]: −3.700 | dCas9 with SSAP activity (gene editing with dCas9): −7.949 | dCas9 with SSAP activity (normalized) (gene editing with dCas9): −1.164

B4: SSAP_292: SEQ ID NO: 461; Paenibacillus rhizosphaerae (protein, listed as Paenibacillus rhizosphaerae)
chain: SSKLVEINSKLDSFLDAQHKAMPKGFNKTRFLQNSMSVLRDIEGLEQCDPKSVALVMLKGAFLGLDFFNKECYPVVYAGKVEFQTDYKGEVKLVKKYSTKPVREIYAKLVRQGDDFSEEIVAGSQTINFKPLPFNNGEIVGAFAVVNYVDGTMQYDTMSTEEIEKIKVNFSRKSKKTNEYSKAWVVTPGEMYKKTVLRRLCKTIDLDFDTIEQAQAFEDAADMDFNQDSKPQQQSPLNPMVIDVEYEEVKEEQADAAEQE
Cas9 with SSAP activity (gene editing with Cas9): −4.432 | Cas9 with SSAP activity (normalized) (gene editing with Cas9): −0.752 | Activity across all experiments [1]: −6.169 | dCas9 with SSAP activity (gene editing with dCas9): −7.905 | dCas9 with SSAP activity (normalized) (gene editing with dCas9): −1.546

B5: SSAP_255: SEQ ID NO: 424; Bacteroides eggerthii (protein, listed as Bacteroides eggerthii)
chain: GTVTTVPQLKSMLANENVKSRFKEILGKKAPGFISSIVAVANSNTLLQKAEPQSIMNAAVIAATLDLPINPNLGFAYIIPYGNQASFQIGYKGMTQLAMRSGQYKTINVTEVYEGEIKSENRFTGEYTFGERKSDKIVGYMAYFSLTNGFEKYMYMSREECEKHGKKFSQTYKRGGGLWATDFDSMSKKTVLKMLISKYGILSIDMQRAQTFDQAVVKDDLVEKNIDEAEVSYEDNPTNADVRRNAMKEALEEAEVVDETTGEIFNQPAQ
Cas9 with SSAP activity (gene editing with Cas9): −0.273 | Cas9 with SSAP activity (normalized) (gene editing with Cas9): −0.044 | Activity across all experiments [1]: −3.873 | dCas9 with SSAP activity (gene editing with dCas9): −7.473

B6: SSAP_78: SEQ ID NO: 247 (protein)
chain: RTDGTKEAGAAATAPTEGKAPAKAHKPADTIGAMIEKLKPQIERALPKHVTPDRMARMALTAIRNNPKLGQAEAVSLMGSIIQASQLGLEPNTPLGQCYIIPYNSKNGMQAQFQMGYKGIVDLAHRSGQYRQLTAHPVDEADEFRYSYGLNPDLVHVPAEKPSGKITHYYAVYHLTNGGFDFRVWSREKVEAHAKQYSKSFSSGPWQTNFDQMACKTVMIDLLRYAPKSVEIAKATSADNRTHTINPEDPDLNIDTIDGDFELEGEER
Cas9 with SSAP activity (gene editing with Cas9): −0.849 | Cas9 with SSAP activity (normalized) (gene editing with Cas9): −0.295 | Activity across all experiments [1]: −4.307 | dCas9 with SSAP activity (gene editing with dCas9): −7.766 | dCas9 with SSAP activity (normalized) (gene editing with dCas9): −2.216

B7: SSAP_185: SEQ ID NO: 354; Pirellula sp. SH-Sr6A (protein, listed as Pirellula sp.)
chain: SEATKEAKPETAIAKKPNGIKDWLKSDALKTQIASVAPKHMAPERVMRIALNAVSRTPKLADCTPESFMRCLLDLSSWGLEPDGRHAHLIPYGTECTLVLDYKGLVTLAYRSGWVKKIHADVVFEGDIFVYSLGTVCQHIPWEFRDDANKPEHKGHFRAAYCVVTMADGIEKHEVMTASEIDAIKAKSRSGNSGPWKDHYTEMAKKTVYRRASKWLPLSPEQADAMERDDDRIIDAVSVAVTQRLSKAAMPLIGANETGDTE
Cas9 with SSAP activity (gene editing with Cas9): −1.825 | Cas9 with SSAP activity (normalized) (gene editing with Cas9): −0.708 | Activity across all experiments [1]: −5.013 | dCas9 with SSAP activity (gene editing with dCas9): −8.201 | dCas9 with SSAP activity (normalized) (gene editing with dCas9): −2.012

B8: SSAP_312: SEQ ID NO: 481; Gallionellaceae bacterium CG1_02_56_997 (protein)
chain: GRKEVERIRDGSRGYQAAKKYKKESTWDTDFVAMGLKTAIRRICKFLPKSPELATALAMDEQAGRQNLNLDDVINGSYTPVVDKDTGEIVDVADGGKTGNSNAATSTKLEKLEKIVAALRDANSVEALDEIYIRAEGDLDDANLEIAMREYRKCKDAISNSLI
modifications: Gallionellaceae bacterium CG1_02_56_997
Cas9 with SSAP activity (gene editing with Cas9): −0.905 | Cas9 with SSAP activity (normalized) (gene editing with Cas9): −0.436 | Activity across all experiments [1]: −0.501 | dCas9 with SSAP activity (gene editing with dCas9): −0.097 | dCas9 with SSAP activity (normalized) (gene editing with dCas9): −0.073

B9: SSAP_207: SEQ ID NO: 376; Mycobacterium sp. 1245499.0 (protein, listed as Mycobacterium sp.)
chain: TTQPEYKPVAQGADKQMTTGKLLKMLEPEIGRALPKGMDPDRICRLVMTEVRKNPMLTQCTQESFAGALLTASALGLEPGVNGEAWLVPYRDRKRGIVECQFIMGYNGVAKLFWQSPHADRLDAQLVCANDHFRYVKGLSPILEHVESDGDRGDPIAYYAIVGVKGAQPMWDVFKPEAIAQLRGGRVGTKGDIDDPQRWMERKTALKQVLKLAPKSTRLDLAIRADERSGSDLYKSQGMEVHAIEPGFIETEAEPETQEQ
Cas9 with SSAP activity (gene editing with Cas9): −4.938 | Cas9 with SSAP activity (normalized) (gene editing with Cas9): −0.798 | Activity across all experiments [1]: −6.496 | dCas9 with SSAP activity (gene editing with dCas9): −8.053 | dCas9 with SSAP activity (normalized) (gene editing with dCas9): −1.345

B10: SSAP_7: SEQ ID NO: 176 (protein)
chain: STNDELKNKLANKQNGGQVASAQSLGLKGLLEAPTMRKKFESVLDKKAPQFLTSLLNLYNGDDYLQKTDPMTVVTSAMVAATLDLPIDKNLGYAWIVPYKGRAQFQLGYKGYIQLALRTGQYKSINVIEVRDGELLKWNRLTEEIELDLDNNTSEKVIGYCGYFQLINGFEKTVYWTRKEIEAHKKKFSKSDFGWKKDYDAMAKKTVLRNMLSKWGILSIDMQTAVTEDEAEPRERKDVTEDESIPDIIDAPITPSDTLEAGSEVQGSMI
Cas9 with SSAP activity (gene editing with Cas9): −7.628 | Cas9 with SSAP activity (normalized) (gene editing with Cas9): −1.701 | Activity across all experiments [1]: −7.537 | dCas9 with SSAP activity (gene editing with dCas9): −7.447 | dCas9 with SSAP activity (normalized) (gene editing with dCas9): −1.443

B11: SSAP_201: SEQ ID NO: 370; Streptomyces reniochalinae (protein, listed as Streptomyces reniochalinae)
chain: SQISNAVAKRDNSPGAMVQQYKADFSTVLPDHVKPDTWVRLAQGVLRRDKNLAQAAERNPGSLMTALLDCARLGHEPGTESFYLVPFGGEVQGIEGYRGVVERMYRAGAIASVKAEVVCQGDDFDYQPDMDKPRHRVDWFGDRGPIVGAYAYAIFKDGSTSRVAVINRAYIDKVKKESKGSDRATSPWMKWEEQMVLKTVAKRLEPWVPTSNEWRREQLRAAREVANEPTPPTTPAPPAPEQVDPDTGEVIDGELVDDTPTQ
Cas9 with SSAP activity (gene editing with Cas9): −0.461 | Cas9 with SSAP activity (normalized) (gene editing with Cas9): −0.195 | Activity across all experiments [1]: −4.249 | dCas9 with SSAP activity (gene editing with dCas9): −8.036 | dCas9 with SSAP activity (normalized) (gene editing with dCas9): −1.510

B12: SSAP_261: SEQ ID NO: 430; Peptoniphilus grossensis (protein, listed as Peptoniphilus grossensis)
chain: TNIQKQENRALSPVNQMKNLLKNQGMQNLFADALKENKDRFLASIIDLYNGDTSLQDCNPKEVVMEALKAATLNLPINKNLGYAYIVPYNSKGTTRPQFQIGYKGYIQMAQRSGQYKALNAGILYEGMEVKRDFLRGTFEIIGEPKSDKVMGYFAYFQLLNGYEKAIYMTKDEVTEHAERYSQSYGSKYSPWKKQFDEMGQKTVIKKLLSKYGVLTTEFQDAVKEEEDREVLRATENNAMLEMTNPDEEEETIEVNPETGEIIEDDVKAPF
Cas9 with SSAP activity (gene editing with Cas9): −0.535 | Cas9 with SSAP activity (normalized) (gene editing with Cas9): −0.174 | Activity across all experiments [1]: −4.137 | dCas9 with SSAP activity (gene editing with dCas9): −7.740 | dCas9 with SSAP activity (normalized) (gene editing with dCas9): −1.199

B13: SSAP_260: SEQ ID NO: 429; Clostridium cochlearium (protein, listed as Clostridium cochlearium)
chain: ATNESLKNQLATKKETGIGSAGNTIKSLINSPVIKKRFEEVLDKRAPQYMSSIVNLVNSDTNLKKCDQMSVIASCMVAATMDLPVDKNLGYAWIVPYGNKAQFQMGYKGYVQLALRTGQYKSINVIEVHEGELEEWNPLTEELKIDFSKKESDAVIGYAGYFELLNGFKKSTYWTKEQITKHKNKFSKSDFGWKKDFDAMAKKTVLRNMLSKWGILSIEMQNAYTADHGVIKNEIMETGEVKENVEYIEADFESYEGTSIEEGGSNE
Cas9 with SSAP activity (gene editing with Cas9): −3.745 | Cas9 with SSAP activity (normalized) (gene editing with Cas9): −0.581 | Activity across all experiments [1]: −5.739 | dCas9 with SSAP activity (gene editing with dCas9): −7.734 | dCas9 with SSAP activity (normalized) (gene editing with dCas9): −1.301
